Data published in US20050234225A1.

Target: KDR-alkaline phosphatase (AP) soluble fusion protein (human) (UniProt P35968)
Test: BIAcore SPR, KDR immobilized

KDR-alkaline phosphatase (AP) soluble fusion protein (human), sequence (P35968 20-764): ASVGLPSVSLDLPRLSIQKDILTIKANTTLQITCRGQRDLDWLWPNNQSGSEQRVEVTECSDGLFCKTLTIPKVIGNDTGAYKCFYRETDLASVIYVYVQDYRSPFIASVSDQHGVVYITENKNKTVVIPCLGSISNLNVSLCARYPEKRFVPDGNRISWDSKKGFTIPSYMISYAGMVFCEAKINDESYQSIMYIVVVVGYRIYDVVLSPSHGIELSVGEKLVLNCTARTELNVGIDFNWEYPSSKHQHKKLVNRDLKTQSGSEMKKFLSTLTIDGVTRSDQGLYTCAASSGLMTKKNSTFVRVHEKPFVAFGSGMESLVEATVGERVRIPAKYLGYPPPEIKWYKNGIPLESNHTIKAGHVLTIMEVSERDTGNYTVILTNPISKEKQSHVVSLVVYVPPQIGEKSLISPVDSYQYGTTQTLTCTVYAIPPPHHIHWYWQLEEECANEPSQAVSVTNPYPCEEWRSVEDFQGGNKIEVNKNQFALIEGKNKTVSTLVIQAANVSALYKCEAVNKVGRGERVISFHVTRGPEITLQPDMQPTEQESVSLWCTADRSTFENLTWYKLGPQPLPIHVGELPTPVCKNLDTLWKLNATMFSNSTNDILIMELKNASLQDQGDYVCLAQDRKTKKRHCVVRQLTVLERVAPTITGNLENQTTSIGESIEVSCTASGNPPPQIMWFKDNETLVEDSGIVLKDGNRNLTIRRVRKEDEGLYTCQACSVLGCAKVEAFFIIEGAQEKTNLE

Kd: 1.4 nM
koff: 0.0001 s⁻¹
kon: 77000 M⁻¹ s⁻¹
B1: p1C11 scFv (scFv, from another filing)
scFv: QVKLQQSGAELVGSGASVKLSCTTSGFNIKDFYMHWVKQRPEQGLEWIGWIDPENGDSDYAPKFQGKATMTADSSSNTAYLQLSSLTSEDTAVYYCNAYYGDYEGYWGQGTTVTVSSGGGGSGGGGSGGGGSDIELTQSPAIMSASPGEKVTITCSASSSVSYMHWFQQKPGTSPKLWIYSTSNLASGVPARFSGSGSGTSYSLTISRMEAEDAATYYCQQRSSYPFTFGSGTKLEIK
